In patent publication EP2330122A1, “OFA/iLRP derived modified peptide” (Asklepios Kliniken Hamburg Gmbh, priority 2009, dated 2011):
Each block holds one molecule with its values, some of them ahead of it. Where no end group is shown, it is not given here.

Columns and labels:
[1] = tested on: tumor cells from CLL patients; assay: 51Chromium release assay on tumor cells from CLL patients; format: cell-based, human; conditions: CTL induction with the peptide
Description: For the induction of OFA/iLR peptide-specific CTL obtained from patients with CLL CDS^+ T cells were separated from PBMC using immunomagnetic beads (MACS®, Miltenyi, Bergisch-Gladbach, Germany) and co-cultured with autologous irradiated OFA/iLR peptide-pulsed CD8^+/CD4^+-depleted PBMC. CTL were weekly restimulated with autologous irradiated peptide-pulsed CD8^+ICD4^+-depleted PBMC in the presence of IL-2 (20IU/ml; CellConcepts, Weisskirch, Germany) and IL-7 (10ng/ml; PeproTech, Hamburg, Germany). After at least four weekly restimulations, CTL reactivity was determined in a conventional 4h ^51Chromium release assay. Antibody blocking experiments were performed as previously described (Zeis M, Siegel S, Schmitz M et al. Induction of cytotoxic T lymphocytes against hematologic neoplasms by survivin RNA-transfected dendritic cells. J Immunol. 2003; 170, 5391-5397).
T cells specific for HLA-A* 02-restricted iLR-ASK-a2 peptide were tested in a standard ^51Chromium release assay on tumor cells from CLL patients.

[2] = target: T1, HLA-A*0201 molecule on the TAP-deficient T2 cell line (human); assay: T2 binding assay
T1 construct: whole, on cells; MHC class I on T2 cells, loaded with peptide from outside; also called HLA-A2-molecule; HLA-A*02-molecule

[3] = target: T1, HLA-A*0201 molecule on the …; assay: T2 binding assay, compared with the native peptide SEQ ID No. 2

Molecule: VAIENPADV [natural processed iLR66-74 peptide]
cytotoxicity obtained by stimulation of patients PBMC with the peptide [1]: no cytotoxicity

binding result [2]: binds
B1: native iLR66-74, naturally processed OFA/iLR peptide (VAIENPADV) (peptide)
peptide: VAIENPADV
notes: Synthetic 9-mer; also called naturally processed iLR peptide; naturally processed peptide

binding result [3]: binds
B2: iLR-ASK-A2 66-74 modified OFA/iLR peptide (VLIENPADV) (peptide)
peptide: VLIENPADV
notes: It is OFA/iLRP AA66-AA74 with the second residue changed from Ala to Leu; also called modified peptide
